Target: T1, soluble recombinant version of the IGLV3-21^R110-harboring B-cell receptor, produced as monomeric human IgM (human)
T1 construct: 170.5 kDa, made by transient expression in 293-HEK cells; It was the analyte in solution in BLI; also called soluble IGLV3-21^R110 B-cell receptor; soluble BCR-fragment
Assay: BLI (Octet)
Protocol: Kinetic assays were performed by first immobilizing the anti IGLV3-21^R110 antibodies onto biosensors through an indirect capturing reagent, anti-human IgG Fc antibody. Anti IGLV3-21^R110 antibodies were loaded at a concentration of 0.01875 μg/ml to generate an anti IGLV3-21^R110 antibody capture level of between 0.30 and 0.34 nm. […] The anti IGLV3-21^R110 antibody capture biosensors were then submerged in wells containing the different concentrations of the soluble BCR-fragment for 900 seconds (association stage) followed by a dissociation step of 1200 seconds in running buffer. Steps were performed at a constant shake speed of 1000 rpm. All reagents were used as described by the manufacturer. Sensorgrams were generated after double reference correction (buffer and blank sensors) to compensate for both the natural dissociation of the capture anti IGLV3-21^R110 antibody and also non-specific binding of the soluble BCR-fragment to the sensor surface. […] (KD) were calculated based on the ratio of association (kₐ) and dissociation rate (kd) constants, obtained by fitting sensorgrams with a first order 1:1 binding model using the Fortebio Data Analysis software (Satorius).
For the KD values of all humanized antibodies, see Table 3.

T1 sequence (heavy, as listed by the source limits assumed, chain 1 of 2): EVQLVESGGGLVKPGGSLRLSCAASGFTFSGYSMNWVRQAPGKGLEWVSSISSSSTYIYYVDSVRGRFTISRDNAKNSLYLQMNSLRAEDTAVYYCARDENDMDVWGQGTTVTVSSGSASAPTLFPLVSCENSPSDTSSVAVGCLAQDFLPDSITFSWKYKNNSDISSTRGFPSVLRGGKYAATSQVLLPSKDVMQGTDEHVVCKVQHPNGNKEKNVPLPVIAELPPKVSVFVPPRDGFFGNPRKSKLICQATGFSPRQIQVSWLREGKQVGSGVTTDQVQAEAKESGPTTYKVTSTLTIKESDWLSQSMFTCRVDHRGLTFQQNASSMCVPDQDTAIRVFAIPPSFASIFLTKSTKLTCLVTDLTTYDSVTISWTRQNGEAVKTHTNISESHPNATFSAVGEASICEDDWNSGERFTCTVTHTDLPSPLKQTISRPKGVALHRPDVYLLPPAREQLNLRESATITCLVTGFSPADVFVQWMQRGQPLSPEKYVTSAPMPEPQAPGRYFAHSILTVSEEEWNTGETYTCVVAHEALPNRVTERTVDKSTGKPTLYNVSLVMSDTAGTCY
T1 sequence (light, as listed by the source limits assumed, chain 2 of 2): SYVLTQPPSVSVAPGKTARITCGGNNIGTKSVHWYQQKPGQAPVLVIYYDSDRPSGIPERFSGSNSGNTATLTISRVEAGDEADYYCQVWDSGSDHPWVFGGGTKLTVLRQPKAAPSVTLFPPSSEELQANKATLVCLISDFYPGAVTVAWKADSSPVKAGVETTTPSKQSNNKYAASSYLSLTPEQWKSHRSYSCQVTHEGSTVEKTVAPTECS

B1: HC7-LC6 (antibody, human IgG1, kappa, V domains shown)
VH: QVQLQESGPGLVKPSETLSLTCTVSGFSLTSYGIHWIRQSPGRGLEWIGVIWRGGGTDSNAAFMSRITISRDTSKTQVSLKLGSVTAADTAIYYCARSRYDEEESMNYWGQGTSVTVSS
VL: EIVLTQSPSSLSASVGDSVTITCRASGNIHSYLAWYQQKPGKAPKLLIYNAKTLADGVPSRFSGSGSGTQYTLTISSLQPEDFATYYCQHFWNTPPTFGAGTKLELKR
notes: Humanized antibody, human IgG1 / kappa
fold of dissociation constant relative to chimeric antibody HC0-LC0: ≤ 2 fold

From patent US20230272073A1 (AVA LIFESCIENCE, published 2023)
